Test results as given in US20060165683A1, “Methods and compositions for control of bone formation via modulation of sympathetic tone” (priority 2001, published 2006).

B1: leptin: polypeptide hormone, product of the ob gene; human leptin (Sigma) infused ICV (protein)
chain: VPIQKVQDDTKTLIKTIVTRINDISHTQSVSAKQRVTGLDFIPGLHPILSLSKMDQTLAVYQQVLTSLPSQNVLQIANDLENLRDLLHLLAFSKSCSLPQTSGLQKPESLDGVLEASLYSTEVVALSRLQGSLQDILQQLDVSPEC

Key:
[1] = tested on: murine primary osteoblasts; assay: cAMP production in murine primary osteoblasts; format: cell-based, mouse; details: confluent cultures, 100 μM IBMX, 5 min treatment; PTH as positive control
Procedure: Primary osteoblast cultures were established as previously described (see, e.g., Ducy et al., 2000, Cell 100: 197-207) and maintained in αMEM/0.1 mg/ml ascorbic acid supplemented with 10% FBS. SaOS-2 were grown in MEM/10% FBS. For cAMP assay confluent cultures were incubated with serum free medium containing 100 μM IBMX (3-isobutyl-1-methylxanthine, Sigma) for 8 minutes before PBS, PTH(1-34) (Bachem), isoproterenol, norepinephrine, phenylephrine (Sigma) or propranolol were added for 5 min. Intracellular cAMP concentration was measured by immunoassay (R&D Systems). For gene expression analyses, primary osteoblasts were treated for 72 hours with appropriate drugs in 0.1% FBS. Hormone serum levels were quantified using immunoassays kits from Peninsula Laboratories (Insulin) or Alpco Diagnostics (leptin). Deoxypyridinoline cross-links and Creatinine were measured in morning urines using the Quidel kits. a1(I) leptin bioactivity was verified by cotransfection of 293 cells expressing ObRb with a STAT3-responsive-luc reporter construct, pSVβgal plasmid and a1(I) leptin expression vector or mock. Twenty-four hours later luciferase and β-galactosidase activities were measured. Data represents ratios of luciferase/β-galactosidase activities, and values are mean of 6 independent transfection experiments.
For a sympathetic regulation of bone formation to exist several requirements have to be fulfilled. The first one is that functional adrenergic receptors are present on osteoblasts. […] Immunohistochemical analysis of long bones from transgenic mice expressing LacZ under the control of the osteoblast-specific fragment of the a1(I) collagen promoter verified the presence of β2-adrenergic receptors on osteoblasts (FIG. 13B). No other adrenergic receptor subtype could be detected. […] Electron micrographs confirmed the presence of unmyelinated peripheral nerve axons coursing through the marrow adjacent to bone trabeculae and to osteoblasts (FIG. 13E). β-adrenergic receptors are G-coupled receptors that signal through the cAMP pathway (see, e.g., Benovic et al., 1988, Annu Rev Cell Biol 4:405-428). Thus, to assess the biologic relevance of the presence of β2-adrenergic receptors on osteoblasts, these cells were treated with isoproterenol, a β-adrenergic agonist, alone or in the presence of propranolol, a β-adrenergic receptor antagonist; with norepinephrine, the natural ligand of β-adrenergic receptors; with phenylephrine, an α-adrenergic agonist or with vehicle and measured cAMP production. As a positive control, parathyroid hormone (PTH) that binds to another G-coupled receptor present in osteoblasts was used (Gardella & Juppner, 2001, Trends Endocrinol Metab 12:210-217.). […] These effects were abolished by propranolol treatment. […]

[2] = tested on: primary osteoblasts isolated from wild-type mice; assay: Leptin signaling in primary osteoblast cultures (Stat3 phosphorylation, immediate early genes, matrix synthesis and mineralization); format: cell-based, mouse
Procedure: Expression of leptin in osteoblasts was studied in subconfluent primary osteoblast cultures from wild-type mice which were maintained for 4 days in 10% FBS mineralization medium and then subsequently switched to 0.5% for 2 days and replaced daily. Medium was replaced 2 hours before a 20 min treatment with 80 ng/mL leptin (Sigma) or 40 ng/mL Oncostatin M (R&D Diagnostics) or vehicle. RNA extractions were performed using Triazol (Gibco). Northern blots were performed with 15 μg of total RNA according to methods well known in the art.
To determine whether or not leptin could transduce its signal in osteoblasts, serum-starved primary osteoblasts isolated from wild-type mice were treated with leptin. Primary osteoblast cultures from calvaria of newborn wild-type or db/db mice were established as previously described (Ducy et al., 1999, Genes Dev 13, 1025-1036) and maintained in mineralization medium (αMEMI 0.1 mg/mL ascorbic acid; 5 mM […]) supplemented with 10% […]. Cultures of mutant cells were maintained in this medium for 15 days before analysis. Cultures derived from wild-type mice were maintained for 10 days in this medium then the percentage of serum was reduced to 0.5% and the medium supplemented with 1.2 μg/mL leptin (Sigma) or vehicle for 5 days.
The phosphorylation of Stat3, a downstream effector of leptin signaling in its target cells (Tartaglia et al., 1995, Cell 83, 1263-1271; Baumann et al., 1996, Proc Natl Acad Sci USA 93, 8374-8378; Ghilardi et al., 1996, Proc Natl Acad Sci USA 93, 6231-6235; Vaisse et al., 1996, Nat Genet 14, 95-97), was monitored, in addition to the expression of two immediate early genes whose transcription is increased following leptin treatment of target cells (Elmquist et al., 1997, Endocrinology 138, 839-842). As a positive control oncostatin-M that induces Stat3 phosphorylation and activates the expression of the same two immediate early genes in osteoblasts (Levy et al., 1996, Endocrinology 137, 1159-1165) was utilized. Western blot analysis was performed to determine Stat3 phosphorylation as follows. Cells were lysed, protein extracts were separated on a 7.5% SDS-PAGE and blotted on nitrocellulose (Biorad) for immunoblotting assay by methods well known in the art. Analysis of Stat3 phosphorylation was performed using the PhosphoPlus Stat3 (Tyr7O5) Antibody kit (New England Biolabs) according to the manufacturer's instructions.
Finally, the effect of a long-term leptin treatment of primary osteoblast cultures from wild-type mice on extracellular matrix synthesis and bone matrix mineralization was determined. The presence of a collagen-rich extracellular matrix and of mineralization nodules was assessed by whole-mount staining of the cultures by the van Gieson and von Kossa reagent, respectively. No difference was observed when assessing collagen synthesis or mineralization nodule formation between control and leptin-treated cultures (FIG. 5E).

Molecule | cAMP production [1] | collagen synthesis or mineralization nodule formation vs control cultures ([2]; long-term treatment, 1.2 μg/mL leptin for 5 days, 0.5% serum) | expression of Tis11 and c-fos (Northern analysis) ([2]; primary osteoblasts, 20 min treatment) | Stat3 phosphorylation (Western blot) ([2]; serum-starved primary osteoblasts, 20 min, leptin 80 ng/mL, Oncostatin M 40 ng/mL)
CC(C)NCC(O)c1ccc(O)c(O)c1 (stereo not shown) [isoproterenol] | increased |  |  | 
B1 |  | No difference | not | did not
